Data set [1] concerns the target T1, 8g076960 (Sl08g076960) with ΔN 12g096020 (Solanum lycopersicum, UniProt A0A3Q7HTY9).
T1 construct: gene LOC101268417; PP2C N-terminally deleted catalytic core 178-509; with Protein phosphatase 2C HAB1-like (clade A)
Briefly: receptor-mediated PP2C inhibition, RRA(phosphoT)VA phosphopeptide, molybdate dye. Conditions: agonist; 0.5 μM PP2C, 2 μM receptor, 0.1-10 μM ligand; 10 mM MgCl2, pH 7.5, 30 °C. The format is biochemical.

Data set [2] concerns the target T2, 6g061180 (Sl06g061180) with ΔN 12g096020 (Solanum lycopersicum, UniProt A0A3Q7HQZ7).
T2 construct: gene LOC101267127; PP2C N-terminally deleted catalytic core 178-509; with Protein phosphatase 2C HAB1-like (clade A)
The data set is described as above. The format is biochemical. The note with it: agonist; 0.5 μM PP2C, 2 μM receptor, 0.1-10 μM ligand; 10 mM MgCl2, pH 7.5, 30 °C.

The target of data set [3] is 8g076960 tomato ABA receptor, recombinant, purified for size exclusion chromatography (tomato (Solanum lycopersicum)). Briefly: SEC; Superdex200 10/30 in 25mM TRIS-HCl pH 8.0, 200mM NaCl, 5mM beta-mercaptoethanol, in the absence of ABA; about 1mg loaded of 8g076960, 6g061180 or 6g050500 (concentrated to 10mg ml^-1), 0.1mg of 12g055990 (0.7mg ml^-1).
The target of data set [4] is 6g061180 tomato ABA receptor, recombinant, purified for size exclusion chromatography (tomato (Solanum lycopersicum)). The data set is described as above.
Data set [5] concerns the molecule itself. Described as above.

A word on the stoichiometry N: it is the number of molecules, sites or subunits per partner or assembly.

T2 sequence (A0A3Q7HQZ7 entry or part of it, stated change not applied): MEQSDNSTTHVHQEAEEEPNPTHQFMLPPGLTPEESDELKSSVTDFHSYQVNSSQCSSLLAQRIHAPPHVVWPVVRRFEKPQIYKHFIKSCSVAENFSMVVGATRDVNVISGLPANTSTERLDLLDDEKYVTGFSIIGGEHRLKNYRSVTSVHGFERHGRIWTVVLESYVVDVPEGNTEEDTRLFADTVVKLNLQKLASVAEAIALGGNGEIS
T1 sequence (A0A3Q7HTY9 entry or part of it, stated change not applied): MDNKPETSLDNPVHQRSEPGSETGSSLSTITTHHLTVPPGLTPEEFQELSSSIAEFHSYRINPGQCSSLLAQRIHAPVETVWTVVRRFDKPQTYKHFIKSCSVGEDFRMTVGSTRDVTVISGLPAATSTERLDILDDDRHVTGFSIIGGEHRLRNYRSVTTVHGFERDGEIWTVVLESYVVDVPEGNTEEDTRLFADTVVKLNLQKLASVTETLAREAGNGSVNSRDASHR

As for `CCCN1C(=O)CCc2cc(NS(=O)(=O)Cc3ccc(C)cc3)ccc21` [quinabactin], the “% PP2C activity” value in data set [1] was “QB inhibited (compared with ABA) ΔN12g096020 phosphatase activity efficiently through the dimeric tomato receptors 8g076960”; in data set [2] it was “efficiently through the dimeric tomato receptors 8g076960 and 6g061180”.

For “8g076960 tomato ABA receptor, recombinant, purified for size exclusion chromatography”, the stoichiometry N in data set [3] was 2.

“6g061180 tomato ABA receptor, recombinant, purified for size exclusion chromatography”: the stoichiometry N in data set [4] was determined as 2.

B1: 6g050500 tomato ABA receptor, recombinant, purified for size exclusion chromatography (receptor)
chain: MPSSLQLHRINPTTATLAVKQPQLSQATTWFSPVSTSVPDNVLHHHTHVVGPNQCCSAVLQSISAPIDTVWSLVRRFDNPQAYKHFLKSCHVIVGDGDVGTLREVRVVSGLPAGSSTERLEILDDEKHVLSFSVVGGDHRLNNYRSVTTLHRAAEEGSTVVVESYVVDVPQGNTKEETCVFVDTIVRCNLQSLAQIAQNLAKTSKNHDEDPQLKIHRLVDFV
For the molecule B1, in data set [5], the “stoichiometry N” value was 2.
